Results from PMC8439657, “Bipartite binding and partial inhibition links DEPTOR and mTOR in a mutually antagonistic embrace” (eLife, 2021).

Target: T1, mTOR FRB domain, residues 2015-2114 (human, UniProt P42345 2015-2114)
T1 construct: mTOR, human, FRB domain, residues 2015-2114; The methods describe the purification of the GST-FRB fusion and mention no TEV cleavage; also called isolated FRB domain; source: E. coli C41(DE3)RIPL, purified (Glutathione-Sepharose, HiTrapQ, Superdex 75)
Assay: NMR titration; up to 220 µM unlabelled linker-PDZ added to 40 µM 15N-labelled FRB; 1H-15N BEST-TROSY, chemical shift perturbation; 278K, pH 8, 50 mM HEPES, 200 mM NaCl
Conditions: both partners purified

T1 sequence (P42345 2015-2114): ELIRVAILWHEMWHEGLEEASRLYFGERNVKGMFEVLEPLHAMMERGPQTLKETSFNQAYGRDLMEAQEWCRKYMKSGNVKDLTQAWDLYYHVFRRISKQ

B1: DEPTOR long-linker-PDZ, residues 228-409 (domain or fragment)
chain: MELLNEKSPSSQETHDSPFCLRKQSHDNRKSTSFMSVSPSKEIKIVSAVRRSSMSSCGSSGYFSSSPTLSSSPPVLCNPKSVLKRPVTSEELLTPGAPYARKTFTIVGDAVGWGFVVRGSKPCHIQAVDPSGPAAAAGMKVCQFVVSVNGLNVLHVDYRTVSNLILTGPRTIVMEVMEELEC
modifications: GST tag left out (TEV-cleavable). pOPL111 states no variant, so the reference sequence is used. The full-length WT clone is the S204/N389 natural variant, so residue 389 of this construct may be N …
B1 gave a Kd of about 500 µM.
